# From FireProtDB (doi:10.1016/j.jmb.2011.02.053)
# B1: Guanyl-specific ribonuclease T1 wild type, P00651 (protein)
# chain: MMYSKLLTLTTLLLPTALALPSLVERACDYTCGSNCYSSSDVSTAQAAGYQLHEDGETVGSNSYPHKYNNYEGFDFSVSSPYYEWPILSSGDVYSGGSPGADRVVFNENNQLAGVITHTGASGNNFVECT
# B2: Variable large protein wild type, O06878 (protein)
# chain: MKKISSAILLTTFFVFINCKSQVADKDDPTNKFYQSVIQLGNGFLDVFTSFGGLVAEAFGFKSDPKKSDVKTYFTTVAAKLEKTKTDLNSLPKEKSDISSTTGKPDSTGSVGTAVEGAIKEVSELLDKLVKAVKTAEGASSGTAAIGEVVADADAAKVADKASVKGIAKGIKEIVEAAGGSEKLKAVAAAKGENNKGAGKLFGKAGAAAHGDSEAASKAAGAVSAVSGEQILSAIVTAADAAEQDGKKPEEAKNPIAAAIGDKDGGAEFGQDEMKKDDQIAAAIALRGMAKDGKFAVKDGEKEKAEGAIKGAAESAVRKVLGAITGLIGDAVSSGLRKVGDSVKAASKETPPALNK
# B3: Guanyl-specific ribonuclease Sa wild type, P05798 (protein)
# chain: DVSGTVCLSALPPEATDTLNLIASDGPFPYSQDGVVFQNRESVLPTQSYGYYHEYTVITPGARTRGTRRIITGEATQEDYYTGDHYATFSLIDQTC
# Settings: pH 7, Fluorescence, transition: 2, reversible: yes, whole UniProt chain shown; for denaturant midpoint (higher = more stable) / unfolding free energy: 25 °C, Urea
# [1] = Aspergillus oryzae (strain ATCC 42149 / RIB 40), MOPS 30mM
# [2] = Borreliella burgdorferi, Sodium phosphate 5mM
protein,measurement,setting,value
B1,denaturant midpoint (higher = more stable),[1],5.3 M
same,unfolding free energy,[1],6.4 kcal/mol
B2,denaturant midpoint (higher = more stable),[2],1.19 M
same,unfolding free energy,[2],4.6 kcal/mol
B3,unfolding enthalpy (calorimetric),"Kitasatospora aureofaciens, Thermal, MOPS 30mM",92 kcal/mol
